Where a chain is given by its changes, count along the chain named.
Experiments:
[1] = test system: T1, dCas12j-8 E258R+D313R+E547R E258R;D313R;E547R;D369A;E567A;D658A (bacteriophage (metagenome)); details: HEK293T cells; panel 1e (compare within a panel only); scale: mean GFP / mean GFP of wild type, printed, no background subtraction
T1 sequence: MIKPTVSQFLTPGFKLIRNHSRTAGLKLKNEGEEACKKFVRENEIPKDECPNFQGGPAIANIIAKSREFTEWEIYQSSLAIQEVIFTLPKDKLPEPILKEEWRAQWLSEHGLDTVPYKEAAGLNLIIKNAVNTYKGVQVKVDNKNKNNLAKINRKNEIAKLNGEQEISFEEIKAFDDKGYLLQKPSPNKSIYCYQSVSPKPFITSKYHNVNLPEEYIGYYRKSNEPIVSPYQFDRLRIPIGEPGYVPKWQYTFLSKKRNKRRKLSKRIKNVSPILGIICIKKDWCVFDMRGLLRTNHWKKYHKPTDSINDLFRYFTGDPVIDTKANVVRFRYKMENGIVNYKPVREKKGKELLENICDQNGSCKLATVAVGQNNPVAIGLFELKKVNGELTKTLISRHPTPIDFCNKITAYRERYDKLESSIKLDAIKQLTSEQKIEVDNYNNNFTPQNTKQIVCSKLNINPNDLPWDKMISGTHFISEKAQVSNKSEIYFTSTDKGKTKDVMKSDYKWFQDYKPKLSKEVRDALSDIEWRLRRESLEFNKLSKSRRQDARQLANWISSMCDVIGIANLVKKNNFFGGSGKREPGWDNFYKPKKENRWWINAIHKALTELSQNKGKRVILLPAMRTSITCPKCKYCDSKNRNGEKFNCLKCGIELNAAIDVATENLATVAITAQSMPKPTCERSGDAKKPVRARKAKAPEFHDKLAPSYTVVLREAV

[2] = test system: T2, dCas12j-8 D416R D416R;D369A;E567A;D658A (bacteriophage (metagenome)); details: HEK293T cells; panel 1c (compare within a panel only); scale: mean GFP / mean GFP of wild type, printed, no background subtraction
T2 sequence: T1 sequence with R258E, R313D, D416R, R547E

[3] = test system: T3, dCas12j-8 E157R E157R;D369A;E567A;D658A (bacteriophage (metagenome)); details: HEK293T cells; panel 1c (compare within a panel only); scale: mean GFP / mean GFP of wild type, printed, no background subtraction
T3 sequence: T1 sequence with E157R, R258E, R313D, R547E

[4] = test system: T4, dCas12j-8 E258R+D313R+D527R E258R;D313R;D527R;D369A;E567A;D658A (bacteriophage (metagenome)); details: HEK293T cells; panel 1e (compare within a panel only); scale: mean GFP / mean GFP of wild type, printed, no background subtraction
T4 sequence: T1 sequence with D527R, R547E

Sequence “CUUUCAAGACUAAUAGAUUGCUCCUUACGAGGAGACACUCCCUAUCAGUGAUAGAG / TTNACTCCCTATCAGTGATAGAG / CTCTATCACTGATAGGGAGTNAA [TetO]” has a binding signal [1] of 3.99, a binding signal [2] of 0.46 and a binding signal [3] of 1.39. It also gave a binding signal [4] of 5.09.
